± gives the half width of the 95% confidence interval.
Experiments:
[1] = folding stability dG unfold (combined trypsin and chymotrypsin); higher = more stable
Summary of the method: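 Bayesian fitting of sequencing counts gave K50 for each design. Unfolding free energy followed by setting this against a sequence-predicted unfolded-state K50 and a shared folded-state K50, either per protease or with trypsin and chymotrypsin combined. The designs, under 80 residues and lacking cysteine, were digested in a PA-tagged cDNA display format at 11 threefold-diluted protease concentrations and without protease, and only those with AlphaFold2 dimer inter-PAE above 15 were kept.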

[2] = folding stability dG unfold from trypsin proteolysis; higher = more stable
Method: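 Folding stability of de novo designed mini-proteins (<80 aa, no Cys; designed by TrROS, TrMRF, ProteinMPNN and the joint model) was measured by cDNA display proteolysis with trypsin and chymotrypsin. Each protease was used at 11 concentrations in a threefold dilution series plus a no-protease condition. K50 was inferred by Bayesian fitting of sequencing counts, and dG unfold was derived against a sequence-predicted unfolded-state K50 (Tsuboyama et al. method). Sequences shown include variable-length N-terminal GS-type padding (SAGGSAGG...) inside a display construct carrying a PA tag. Rows were kept only if the AF2 dimer inter-PAE was >15, to exclude likely homo-oligomers.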

| Sequence | folding stability dG unfold [1] [kcal/mol] | folding stability dG unfold [2] [kcal/mol] |
| --- | --- | --- |
| SAGGMDVKVEVKEVELPEAKVTITKITTPDGSTSTITYDPETGTADVTTTTPTSTTTTTLPKSEIKPLSAGG [r13_328_JUSTAS] | 0.184 ± 0.31 | 0.846 ± 0.097 |
| SAGGGSHTFKDNGKKIKITVYPPPNGNMRVQLQIYDPDDGKPKPKAIAPFRGGSVEDAIKDLLDAGISAGGS [r16_378_TrROS] | -0.625 ± 0.32 | -0.0278 ± 0.19 |
| SSMSTPSSSTLTVELPDREVTASATTTTLPDGTTTTTTTFPDGSTITYDPATGTTTIYDPATGAPLATTGSA [r9_970_JUSTAS] | 0.344 ± 0.047 | 0.959 ± 0.048 |
| SAGGSAGGSDPVVIPVPMDDFSKETIKNFIDEAPDDNRPIQMNFPNGKPIYIQVEPDGDIKPVSAGGSAGGS [r12_1054_TrROS] | < -1 | 0.557 ± 0.041 |
| SAGGGSMVNISKEELAKKIAKELGKDFPTENVKVKKEIYPEPVSIYTITIKVPGTNITLNVPITLPESAGGS [r16_42_JUSTAS] | -0.226 ± 0.22 | -0.043 ± 0.098 |
| SAGGSAGGSAGMEIEVEVDPSTNTVKLTKKIGGKWVEATVTRTPGTGTITLPDGSTLKLTSAGGSAGGSAGG [r11_395_JUSTAS] | < -1 | -0.709 ± 0.47 |
| SAGGSAGGSAGGGSMTLSLDTRPEDGTLVLVSTFVDPASGLVSVTTTYPDSTVTTTLPVGSAGGSAGGSAGG [r7_402_JUSTAS] | 0.528 ± 0.087 | 0.998 ± 0.049 |
| SAGGSAGGSGEEIIKKIAESLIPGHPNLKPDKITYDPKTGKITIKTKNPKAAKLLKELDLIKPSAGGSAGGS [r12_623_TrMRF] | < -1 | -0.446 ± 0.28 |
| SAGPGNWFIMIFINIEIKLETVPDPDGKPWLKITISIKFFVMIVRLPPDGKARMEMFPITIKFTFTIPLSAG [r5_428_TrROS] | > 6 | 4.17 ± 0.29 |
| SAGGSAGGSAGATVLQQGTATPPDGTTVTFNYNITLPSDVLISVDKNPPNPDLVTKIEAGSAGGSAGGSAGG [r11_781_JUSTAS] | -0.197 ± 0.4 | 0.154 ± 0.029 |
| SAGGRGQELTIPNGAPIEDIEELAKKDPDYQVKITEIKMQKPKKDPNGKKRPVPMWMKITLYPAGEKSAGGS [r8_172_TrROS] | < -1 | 0.116 ± 0.27 |
| SAGGGEVKKVTYVVVIELPPDPETGEPHPLPLVLEREYPADDPEAVESDIKKALDEIDIPEEAKEALSAGGS [r16_40_TrMRF] | 0.123 ± 0.32 | 0.403 ± 0.083 |
| SAGGSAGGSKIKILFDPNMTLEEAIELAEKLTKEFDAEVELEIIPKPKPKPLPVIDPENPKLLSAGGSAGGS [r12_159_TrMRF] | -0.72 ± 0.3 | 0.252 ± 0.028 |
| SAGGALAVKVEFDEEIPTATITYRAPVPGEGGAVDVPADEVAAAIAKALGLPDLEEVTVNVPAPDAPLSAGG [r13_327_JUSTAS] | -0.543 ± 0.22 | 0.197 ± 0.075 |
| SAGMSTSGPIFVPEGPPAIYISYPKPNVKFVVPVSEGIEAVKKRAEEPGLNPVIIKVVETPPGVPVTLSAGG [r19_386_JUSTAS] | < -1 | -0.988 ± 0.34 |
| SAGGSAGGSAGLVKLKDKNGKLITLEVKEVEVVEVKEVTLKPKPKPKKTLKLSEEELKKLSAGGSAGGSAGG [r17_484_TrROS_Hall] | -0.494 ± 0.25 | -0.143 ± 0.075 |
| SVPPFLNLPEAAKALAKAKPGPPVPRLTFPVTTDDPEEALEEILKQYPHLHPDKIKRVEVGDGYLTVEFGSA [r9_723_TrMRF] | < -1 | -0.936 ± 0.34 |
| SAGGSSLDEKIKQAVEEGKVPTEIEFTDPSNDLKTRYLVTVKSVLPGSYEVEVEEEIFDPDNPVLVSAGGSA [r2_420_JUSTAS] | < -1 | -1.07 ± 0.27 |
| SAGGSAGGSAGGKLVKVTFRTPGGGTLTVEVPPTESLTLPYGDKPILVDVKEDEVVFRDESAGGSAGGSAGG [r7_510_TrMRF] | -0.891 ± 0.44 | -0.572 ± 0.18 |
| SAGGSAGGSMKPVLTIPASVTDPEVAIAILREAKAALPEGTQLEVVMPGGAEEELKKAGLILKSAGGSAGGS [r12_992_JUSTAS] | < -1 | -1.4 ± 0.71 |
| SAGGSAGGSAGERIPIKVSIHDPDGRMVPMEIKEIDPDDGTIEVKLPGLPPGIRSIHIMLSAGGSAGGSAGG [r17_260_TrROS] | < -1 | -1.01 ± 0.31 |
| SAGGSAGGSSSVMTVTVEYPTPAPPVVRRETVEVPDPDGSLSEEELKEKYSPPDAVVTEVVRESAGGSAGGS [r12_611_JUSTAS] | < -1 | -1.07 ± 0.34 |
| SAGGSAGGMKPTVEVRPVPPSARMVVTITLPGSGKKVTIPVPDAPAPEEPERVIEEALAYVKTSSAGGSAGG [r6_331_JUSTAS] | < -1 | -0.714 ± 0.47 |
| SAGGGVSTSTDPNSDTTTTTVPLPNSDSTATSTHNPSTGTSTTTVPTNNTTTTYSPGGTTTATTTLPTSAGG [r13_101_JUSTAS] | -0.425 ± 0.18 | 0.465 ± 0.034 |

| Sequence | folding stability dG unfold [1] [kcal/mol] | folding stability dG unfold [2] [kcal/mol] |
| --- | --- | --- |
| SAGGSAIRIEPDEDGYIKIEKPSPPGEPASELIEELKDFFPNWEVETHPHPNGRAEIIFRIPPDQFSAGGSA [r15_1047_TrROS] | -0.132 ± 0.15 | 0.244 ± 0.077 |
| SAIRGLPPEEIEKAVKKLAKEGNVEIEIKPFTMRVYPPDGGQQPYQYYQIEIYNPDNGKPIEDKIKKLFSAG [r14_628_TrROS] | < -1 | 0.167 ± 0.25 |
| SAGGSAGGSAGGKPIYILAEHPSNGKVVLLPVDSPEKAIEFAKALADVPDFKIAHVDAFGSAGGSAGGSAGG [r11_951_TrMRF] | -0.287 ± 0.22 | 0.341 ± 0.052 |
| SAGGSAGGSAGPKWKQITIPMEPGQSVNEIADEIKDELGPGKRVHVSMHENGWMTIYVRKSAGGSAGGSAGG [r17_20_TrROS] | < -1 | -0.484 ± 0.23 |
| SAGGPVVLKIEIEQKTDGKPQERELVIPVKWDPNGQVDADEIKDWVEEALPPGYKIEDIDVVPPGQPFSAGG [r13_504_TrROS] | < -1 | -0.594 ± 0.22 |
| SAGGSNPGDPEQVPKVKIKITYPDNGKEFTIPVEELRNGPIEEAVSEIANEARERYPGHPLRIEPVSAGGSA [r2_392_TrROS] | < -1 | -0.836 ± 0.41 |
| SAAPTSSGPISLNKPEILTITSVEADPETGTITTPTRVELTEEELDPFNPEIPTFKKKYLDVTLTTPTSSAG [r14_888_JUSTAS] | < -1 | -0.643 ± 0.45 |
| SAGGSAGGSAGGDVEVKEFTTTDPETGEEIIRVTETIPGNEKIVTTYTKDGKPISTKKILSAGGSAGGSAGG [r7_454_JUSTAS] | -0.528 ± 0.24 | -0.0907 ± 0.13 |
| SMSEELKKEIEAFLKEKGASIDFKTDPSTGKITITVTIPGKGTTTTITLTFPPDNPEEIKEKIKELIEKGSA [r9_42_JUSTAS] | > 6 | 4.88 ± 0.6 |
| SAGGSAGGSAGIPNLIAYEVSKEGKPVKIIVKSPNGEEYEITVSPNESIPENIEILKVEVGSAGGSAGGSAG [r3_421_TrMRF] | -0.0441 ± 0.15 | 0.685 ± 0.034 |
| SAGWKLKIESPNGAEIEINPESGMIDVKNPDNGQPWSVMIPPENPGEINIFNPGDGEPLQPFKIDEIEPSAG [r5_761_TrROS] | 0.111 ± 0.41 | 0.337 ± 0.23 |
| SAGGSAGGSMKTALLDDGKTIPLPEEELPPDAGVEEVAKKIPPEAKKLTVKEPDGSTKTVPLASAGGSAGGS [r20_161_JUSTAS] | < -1 | -0.0521 ± 0.2 |
| GKVLAVPVSYDPETGTVTVLEVKDTGTTLATLKPLPVVDISREELEKLAKGLAEENPELKELAEKLVEELAS [r1_330_TrMRF] | -0.197 ± 0.35 | -0.145 ± 0.075 |
| SAGGSAGGSIAPDEPLVLEVEVEEVVPGVGEVLLPEWIAEEFPDAVIEVETDGTPVKVTIYRPSAGGSAGGS [r12_900_TrMRF] | 0.0203 ± 0.076 | 0.743 ± 0.045 |
| SSFMEQARNMAEELLQKKGLPPKPGEKVEIPIPYPNGMQIRITINPEEKKIDVEFYNDNQPVEHTFKIKKSA [r9_426_TrROS] | -0.821 ± 0.76 | 0.267 ± 0.33 |
| SAGGLEAKITEIDEDGYLRIEIVDPETGELIAEIRIKIELPPPPPVPETEEVLDEDGRKRTVTRLYDRSAGG [r13_9_TrROS_Hall] | -0.406 ± 0.23 | 0.214 ± 0.13 |
| SAGGSAGGSSMPLLTKETSESYDPVNNTKTTTERIEEPGSGKFVFTKTTTTYPDGTVTTTLVESAGGSAGGS [r12_115_JUSTAS] | -0.652 ± 0.35 | -0.336 ± 0.42 |
| SAGGSAMKVKSIHWQRHGDRPMVRIKIQNPDGKKRERNIPMDDPEKFKKEAKELAKEGKIKEIEPYSAGGSA [r15_575_TrROS] | < -1 | -0.42 ± 0.81 |
| SAGGSAGGSAGMILTEEVTVAVPTLSTADGTRHTTTVPELVVVELKLPPVPPEAVEKLLASAGGSAGGSAGG [r11_318_JUSTAS] | -0.887 ± 0.16 | -0.0441 ± 0.019 |
| SAGGSAETYPVTVVVPLPPGGRELPVEELEDLVRETLANVPDLPDVKVEVTLLEPEGRALVRVEFPSAGGSA [r15_1029_TrMRF] | -0.594 ± 0.16 | 0.0434 ± 0.12 |
| SAGGSAGGSAMPEPVTITVRVPYEPDEAEAAAERIREEEYPDAKSITVTRDPATGTATFTVNSAGGSAGGSA [r18_390_JUSTAS] | < -1 | -0.222 ± 0.18 |
| SAGGSAGGSAGGKGWPTVEIPMPENGKPTPDSIEEIAEKFNMPNVEVEQSDDWHKIDVDSAGGSAGGSAGGS [r10_642_TrROS] | -0.295 ± 0.32 | 0.92 ± 0.047 |
| SAGGSAGGSAGGMTTITVKDKTKEEIEKELAEKYNVKKVTVTPIEGNSVKVEVEIEPLGSAGGSAGGSAGGS [r10_1219_JUSTAS] | -0.948 ± 0.46 | -0.216 ± 0.19 |

From the supplement of paper PMC12764529
